Laboratory results: patent publication US20220372084A1 (MJCELL BIO, published 2022)

Target: PA63 ligand (truncated 63 kDa portion of anthrax protective antigen), reagent conjugated with FITC (Bacillus anthracis, UniProt P13423 197-764)
Experiment: flow cytometry, FITC-conjugated PA63 on cell lines expressing ANTXR1 and ANTXR2

B1: ANTXR1 (anthrax toxin receptor 1) (receptor)
chain: not shown
notes: whole, on cells
  binding result: binds
